# Reference: patent publication US20110229459A1 (Chugai, published 2011)
# T1: cytoplasmic domain-lacking human NR10 on CHO cells (human, UniProt Q8NI17 20-553)
# T1 construct: The construct lacks the cytoplasmic domain; also called hNR10-expressing CHO cells; hNR10
# T1 sequence: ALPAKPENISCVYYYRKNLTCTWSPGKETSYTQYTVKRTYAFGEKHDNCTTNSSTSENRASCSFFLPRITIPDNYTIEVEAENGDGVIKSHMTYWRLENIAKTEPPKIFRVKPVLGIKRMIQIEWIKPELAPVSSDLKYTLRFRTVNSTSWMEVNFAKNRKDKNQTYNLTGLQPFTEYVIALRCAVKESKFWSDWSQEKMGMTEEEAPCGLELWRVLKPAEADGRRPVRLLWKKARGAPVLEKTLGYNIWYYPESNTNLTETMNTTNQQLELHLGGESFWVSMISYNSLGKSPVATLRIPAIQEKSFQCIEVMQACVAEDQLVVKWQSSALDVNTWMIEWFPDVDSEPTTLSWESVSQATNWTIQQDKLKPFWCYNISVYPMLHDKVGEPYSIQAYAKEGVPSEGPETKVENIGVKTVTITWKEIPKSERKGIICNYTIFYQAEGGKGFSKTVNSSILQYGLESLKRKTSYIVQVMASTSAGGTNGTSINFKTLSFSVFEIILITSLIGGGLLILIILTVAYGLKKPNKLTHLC
# T2: rhNR10 (human, UniProt Q8NI17 20-519, limits assumed)
# T2 construct: also called recombinant human NR10; IL-31 receptor
# T2 sequence: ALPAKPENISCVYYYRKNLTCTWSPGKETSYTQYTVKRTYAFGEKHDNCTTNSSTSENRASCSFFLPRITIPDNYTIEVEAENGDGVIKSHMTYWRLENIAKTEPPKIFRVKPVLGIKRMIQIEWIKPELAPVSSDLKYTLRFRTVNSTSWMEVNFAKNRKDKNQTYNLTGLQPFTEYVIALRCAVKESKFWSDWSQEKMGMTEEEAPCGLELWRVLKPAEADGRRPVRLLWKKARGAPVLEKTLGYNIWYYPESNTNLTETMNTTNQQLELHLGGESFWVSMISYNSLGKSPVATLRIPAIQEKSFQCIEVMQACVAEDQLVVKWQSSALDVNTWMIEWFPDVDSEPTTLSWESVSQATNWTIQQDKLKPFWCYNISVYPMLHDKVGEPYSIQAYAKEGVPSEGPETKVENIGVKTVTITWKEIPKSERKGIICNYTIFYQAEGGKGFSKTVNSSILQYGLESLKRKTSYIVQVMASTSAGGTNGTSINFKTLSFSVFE
# How the values were obtained:
# [1] = molecular target: T1, cytoplasmic domain-lacking human NR10 …; test: FMAT competition on hNR10-expressing CHO cells; blocked ligand: FMAT Blue-labeled hIL-31; mean +/- S.D. (n=3)
# Procedure: Antibodies were assessed for the activity of inhibiting the IL-31/NR10 binding by using hNR10-expressing CHO cells as described below. The chimeric NS22 antibody and NS22_H0L0 (H chain, H0-SKSC/SEQ ID NO: 54; L chain, L0/SEQ ID NO: 56) were diluted at an appropriate concentration using Assay buffer (10 mM HEPES, 140 mM NaCl, 2.5 mM CaCl₂, 3 mM MgCl₂, 2% FBS, 0.01% NaN₃, pH7.4), and further eight serial dilutions were prepared at a common dilution ration of 2. The dilutions were added at 40 μl/well to plates (96-Well FMAT Plates, Applied Biosystems). Then, FMAT Blue-labeled hIL-31 was diluted 400 times with Assay buffer, and added at 20 μl/well. Finally, a cell suspension adjusted to 2.5×10⁵ cells/ml using Assay buffer was added at 40 μl/well (final 1×10⁴ cells/well). Two hours after addition of cells, the fluorescence (FL1) was measured using the 8200 Cellular Detection System (Applied Biosystems).
# Each variant was tested for the activity of inhibiting the hIL-31/hNR10 binding by using FMAT. The test was carried out according to the method as described in Example 4.
# rhNR10 = molecular target: T2, rhNR10; test: SPR (Biacore T100): antibody captured on Protein A, rhNR10 as analyte
# Procedure: Kinetic analysis of the antigen-antibody reaction was carried out using Biacore T100 (GE Healthcare Biosciences). The antigen-antibody interaction was measured by immobilizing rec-Protein A (hereinafter Protein A) (ZYMED) onto a sensor chip, capturing an antibody on the immobilized Protein A, and then reacting the antigen as an analyte. Various concentrations of rhNR10 were used as the antigen. The kinetic parameters, association rate constant kₐ (1/Ms) and dissociation rate constant kd (1/s), were calculated from the sensorgrams obtained by the measurement. Then, KD (M) was determined based on the rate constants. Each parameter was determined using Biacore T100 Evaluation Software version 1.1 (GE Healthcare Biosciences).
# The running buffer used was HBS-EP+. Each antibody was prepared at 0.25 μg/ml, or prepared so that about 100 RU would bind to Protein A. rhNR10 used as an analyte was prepared at 0, 38.5, 77.0, and 154 nM, or at 0, 19.25, and 77.01 nM using HBS-EP+. In the measurement, first, the antibody solution was captured on Protein A, and an analyte solution was reacted at a flow rate of 20 μL/min for three minutes. Then, the solution was switched to HBS-EP+, and the dissociation phase was measured for five minutes. […] The obtained sensorgrams were kinetically analyzed using the Biacore-specific data analysis software, Biacore T100 Evaluation Software Version 1.1.
# soluble human FcRn = molecular target: T3, soluble human FcRn (human, UniProt P55899 24-290; P16213 21-119); test: SPR (Biacore 3000), pH 6.0: antibody captured on the chip, human FcRn as analyte, steady state affinity
# T3 construct: The stated ranges include the signal regions; also called hFcRn; complex of FcRn and β2-microglobulin
# T3 sequence (P55899 24-290 limits assumed, chain 1 of 2): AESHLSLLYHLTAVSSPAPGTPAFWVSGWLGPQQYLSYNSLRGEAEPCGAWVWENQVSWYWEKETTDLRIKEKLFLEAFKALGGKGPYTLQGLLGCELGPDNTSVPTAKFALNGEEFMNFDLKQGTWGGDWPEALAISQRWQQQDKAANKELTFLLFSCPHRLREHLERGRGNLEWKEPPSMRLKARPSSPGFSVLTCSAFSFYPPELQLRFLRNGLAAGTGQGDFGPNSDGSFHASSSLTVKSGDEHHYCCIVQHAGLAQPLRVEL
# T3 sequence (P16213 21-119 limits assumed, chain 2 of 2): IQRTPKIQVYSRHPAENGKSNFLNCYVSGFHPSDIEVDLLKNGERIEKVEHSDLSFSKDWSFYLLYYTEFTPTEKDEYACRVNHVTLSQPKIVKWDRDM
# Procedure: The binding to human FcRn was assessed using Biacore 3000.
# The affinity was calculated using BIAevaluation software. The obtained sensorgram was used to calculate the amount of hFcRn bound to the antibody immediately before the end of human FcRn injection. This was fitted by the steady state affinity method to calculate the affinity of human FcRn for the antibody.
# The binding activities of huPM1-IgG1 and huPM1-M58 to human FcRn were assessed using BIAcore.
binder,measurement,setting,value
"Hp9 variant of H0L0 (antibody, V domains shown, Variant of H0L0; also called Hp9-VH) VH: QVQLVQSGAEVKKPGASVKVSCKASGYTFTGYIMNWVRQAPGQGLEWMGLINPYNGGTSYNQQFKGRVTITADESTSTAYMELSSLRSEDTAVYYCARDGYDDGPYTMDYWGQGTLVTVSS VL: DIQMTQSPSSLSASVGDRVTITCRTSENIYSFLAWYQQKPGKAPKLLIYNAKTLAKGVPSRFSGSGSGTDFTLTISSLQPEDFATYYCQHHYESPLTFGGGTKVEIKR",IC50 (read off the curve),[1],~0.09 µg/mL
"H0L12 (H chain, H0-M58; L chain, L12) (antibody, V domains shown) VH: QVQLVQSGAEVKKPGASVKVSCKASGYTFTGYIMNWVRQAPGQGLEWMGLINPYNGGTSYNQKFKGRVTITADESTSTAYMELSSLRSEDTAVYYCARDGYDDGPYTMDYWGQGTLVTVSS VL: DIQMTQSPSSLSASVGDRVTITCQTSEDIYSFVAWYQQKPGKAPKLLIYNAQTEAQGVPSRFSGSGSGTDFTLTISSLQPEDFATYYCQHHYDSPLTFGGGTKVEIKR",fold affinity against H0L0,rhNR10,~2 times
"huPM1-M58 (humanized anti-IL-6 receptor antibody with constant region M58) (antibody, copies: 2 + 2) heavy: QVQLQESGPGLVRPSQTLSLTCTVSGYSITSDHAWSWVRQPPGRGLEWIGYISYSGITTYNPSLKSRVTMLRDTSKNQFSLRLSSVTAADTAVYYCARSLARTTAMDYWGQGSLVTVSSASTKGPSVFPLAPSSKSTSGGTAALGCLVKDYFPEPVTVSWNSGALTSGVHTFPAVLQSSGLYSLSSVVTVPSSNFGTQTYTCNVDHKPSNTKVDKTVERKSCVECPPCPAPPVAGPSVFLFPPKPKDTLMISRTPEVTCVVVDVSQEDPEVQFNWYVDGVEVHNAKTKPREEQFNSTFRVVSVLTVVHQDWLNGKEYKCKVSNKGLPAPIEKTISKTKGQPREPQVYTLPPSQEEMTKNQVSLTCLVKGFYPSDIAVEWESNGQPENNYKTTPPMLDSDGSFFLYSKLTVDKSRWQEGNVFSCSVMHEALHNHYTQKSLSLSP light: not shown",fold binding activity against huPM1-IgG1,soluble human FcRn,~1.4 times
